{"source": "patent US20220144960A1", "about": "(NANJING LEGEND BIOTECH, published 2022)", "binders": {"B1": {"name": "AS48542VH5dil-bbz CAR (other)", "chain": "EVQLVESGGGLVQPGGSLRLSCATSAFTFDGPDMAWYRQAPGKGCELVSIISADGRTYYADSVKGRFTISRDNSKNTVYLQMNSLRAEDTAVYYCALDPRKNCRGGYCCANWGQGTLVTVSSGGGGSGGGGSGGGGSEVQLVESGGGLVQPGGSLRLSCATSAFTFDGPDMAWYRQAPGKGCELVSIISADGRTYYADSVKGRFTISRDNSKNTVYLQMNSLRAEDTAVYYCALDPRKNCRGGYCCANWGQGTLVTVSSTTTPAPRPPTPAPTIASQPLSLRPEACRPAAGGAVHTRGLDFACDIYIWAPLAGTCGVLLLSLVITLYCKRGRKKLLYIFKQPFMRPVQTTQEEDGCSCRFPEEEEGGCELRVKFSRSADAPAYKQGQNQLYNELNLGRREEYDVLDKRRGRDPEMGGKPRRKNPQEGLYNELQKDKMAEAYSEIGMKGERRRGKGHDGLYQGLSTATKDTYDALHMQALPPR"}, "B2": {"name": "AS48463VH4dil-bbz CAR (other)", "chain": "EVQLLESGGGLVQPGGSLRLSCAASGFTFANSDMGWYRQAPGKGCELVSIISSHGGTTYYVDSVKGRFTISRDNSKNTLYLQMNSLRAEDTAVYYCVADPRSNCRGGYCCGYWGQGTLVTVSSGGGGSGGGGSGGGGSEVQLLESGGGLVQPGGSLRLSCAASGFTFANSDMGWYRQAPGKGCELVSIISSHGGTTYYVDSVKGRFTISRDNSKNTLYLQMNSLRAEDTAVYYCVADPRSNCRGGYCCGYWGQGTLVTVSSTTTPAPRPPTPAPTIASQPLSLRPEACRPAAGGAVHTRGLDFACDIYIWAPLAGTCGVLLLSLVITLYCKRGRKKLLYIFKQPFMRPVQTTQEEDGCSCRFPEEEEGGCELRVKFSRSADAPAYKQGQNQLYNELNLGRREEYDVLDKRRGRDPEMGGKPRRKNPQEGLYNELQKDKMAEAYSEIGMKGERRRGKGHDGLYQGLSTATKDTYDALHMQALPPR"}, "B3": {"name": "AS53574VH7-AS47863VH4bil-bbz CAR (other)", "chain": "EVQLVESGGGLVQPGGSLRLSCAASGYIYSSNCMGWFRQAPGKGREWVARIHTGSGSTYYADSVKGRFTISQDNSKNTLYLQMNSLRAEDTAVYDCAAGRVVLGAVVCTNEYWGQGTLVTVSSGGGGSGGGGSGGGGSEVQLVESGGGLVQPGGSLRLSCAASGSTFGDSDMGWYRQAPGKGCELVSIISSDGRTYYVDSVKGRFTISQDNSKNTLYLQMNSLRAEDTAVYYCAADLRQYCRDGRCCGYWGQGTLVTVSSTTTPAPRPPTPAPTIASQPLSLRPEACRPAAGGAVHTRGLDFACDIYIWAPLAGTCGVLLLSLVITLYCKRGRKKLLYIFKQPFMRPVQTTQEEDGCSCRFPEEEEGGCELRVKFSRSADAPAYKQGQNQLYNELNLGRREEYDVLDKRRGRDPEMGGKPRRKNPQEGLYNELQKDKMAEAYSEIGMKGERRRGKGHDGLYQGLSTATKDTYDALHMQALPPR"}, "B4": {"name": "AS53574VH7-AS48542VH5bil-bbz CAR (other)", "chain": "EVQLVESGGGLVQPGGSLRLSCAASGYIYSSNCMGWFRQAPGKGREWVARIHTGSGSTYYADSVKGRFTISQDNSKNTLYLQMNSLRAEDTAVYDCAAGRVVLGAVVCTNEYWGQGTLVTVSSGGGGSGGGGSGGGGSEVQLVESGGGLVQPGGSLRLSCATSAFTFDGPDMAWYRQAPGKGCELVSIISADGRTYYADSVKGRFTISRDNSKNTVYLQMNSLRAEDTAVYYCALDPRKNCRGGYCCANWGQGTLVTVSSTTTPAPRPPTPAPTIASQPLSLRPEACRPAAGGAVHTRGLDFACDIYIWAPLAGTCGVLLLSLVITLYCKRGRKKLLYIFKQPFMRPVQTTQEEDGCSCRFPEEEEGGCELRVKFSRSADAPAYKQGQNQLYNELNLGRREEYDVLDKRRGRDPEMGGKPRRKNPQEGLYNELQKDKMAEAYSEIGMKGERRRGKGHDGLYQGLSTATKDTYDALHMQALPPR"}, "B5": {"name": "AS47863VH4dil-bbz CAR (other)", "chain": "EVQLVESGGGLVQPGGSLRLSCAASGSTFGDSDMGWYRQAPGKGCELVSIISSDGRTYYVDSVKGRFTISQDNSKNTLYLQMNSLRAEDTAVYYCAADLRQYCRDGRCCGYWGQGTLVTVSSGGGGSGGGGSGGGGSEVQLVESGGGLVQPGGSLRLSCAASGSTFGDSDMGWYRQAPGKGCELVSIISSDGRTYYVDSVKGRFTISQDNSKNTLYLQMNSLRAEDTAVYYCAADLRQYCRDGRCCGYWGQGTLVTVSSTTTPAPRPPTPAPTIASQPLSLRPEACRPAAGGAVHTRGLDFACDIYIWAPLAGTCGVLLLSLVITLYCKRGRKKLLYIFKQPFMRPVQTTQEEDGCSCRFPEEEEGGCELRVKFSRSADAPAYKQGQNQLYNELNLGRREEYDVLDKRRGRDPEMGGKPRRKNPQEGLYNELQKDKMAEAYSEIGMKGERRRGKGHDGLYQGLSTATKDTYDALHMQALPPR"}, "B6": {"name": "AS53574VH7-AS48463VH4bil-bbz CAR (other)", "chain": "EVQLVESGGGLVQPGGSLRLSCAASGYIYSSNCMGWFRQAPGKGREWVARIHTGSGSTYYADSVKGRFTISQDNSKNTLYLQMNSLRAEDTAVYDCAAGRVVLGAVVCTNEYWGQGTLVTVSSGGGGSGGGGSGGGGSEVQLLESGGGLVQPGGSLRLSCAASGFTFANSDMGWYRQAPGKGCELVSIISSHGGTTYYVDSVKGRFTISRDNSKNTLYLQMNSLRAEDTAVYYCVADPRSNCRGGYCCGYWGQGTLVTVSSTTTPAPRPPTPAPTIASQPLSLRPEACRPAAGGAVHTRGLDFACDIYIWAPLAGTCGVLLLSLVITLYCKRGRKKLLYIFKQPFMRPVQTTQEEDGCSCRFPEEEEGGCELRVKFSRSADAPAYKQGQNQLYNELNLGRREEYDVLDKRRGRDPEMGGKPRRKNPQEGLYNELQKDKMAEAYSEIGMKGERRRGKGHDGLYQGLSTATKDTYDALHMQALPPR"}}}
{"target": "T1, CD30 on CD30-expressing tumor cell lines (HH, MJ, H9) (UniProt P28908 19-595)", "T1 sequence (looked up)": "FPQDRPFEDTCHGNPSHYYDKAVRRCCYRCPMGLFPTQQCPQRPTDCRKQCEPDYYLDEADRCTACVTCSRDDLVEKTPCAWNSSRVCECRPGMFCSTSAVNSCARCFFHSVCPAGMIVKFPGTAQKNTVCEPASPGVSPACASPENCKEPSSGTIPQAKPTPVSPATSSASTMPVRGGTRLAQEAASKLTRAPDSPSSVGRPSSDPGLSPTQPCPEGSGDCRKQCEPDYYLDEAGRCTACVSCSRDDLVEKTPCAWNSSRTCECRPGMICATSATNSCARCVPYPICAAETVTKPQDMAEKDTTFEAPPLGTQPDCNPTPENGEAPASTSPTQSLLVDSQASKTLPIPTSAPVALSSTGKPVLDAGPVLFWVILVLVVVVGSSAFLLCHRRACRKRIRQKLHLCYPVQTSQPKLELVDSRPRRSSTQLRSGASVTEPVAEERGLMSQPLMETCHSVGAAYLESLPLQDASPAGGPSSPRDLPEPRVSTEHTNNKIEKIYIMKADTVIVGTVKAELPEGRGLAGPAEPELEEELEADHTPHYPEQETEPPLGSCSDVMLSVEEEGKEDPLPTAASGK", "assay": "cell-based or functional assay", "units": {"% H9 cell lysis E:T = 0.2:1 (FACS method, CAR T cells)": "%", "% MJ cell lysis E:T = 0.2:1 (FACS method, CAR T cells)": "%"}}
{"binder": "B1", "% H9 cell lysis E:T = 0.2:1 (FACS method, CAR T cells)": 40.4, "% MJ cell lysis E:T = 0.2:1 (FACS method, CAR T cells)": 63.4}
{"binder": "B2", "% H9 cell lysis E:T = 0.2:1 (FACS method, CAR T cells)": 30.8, "% MJ cell lysis E:T = 0.2:1 (FACS method, CAR T cells)": 26.3}
{"binder": "B3", "% H9 cell lysis E:T = 0.2:1 (FACS method, CAR T cells)": 41.6, "% MJ cell lysis E:T = 0.2:1 (FACS method, CAR T cells)": 71.3}
{"binder": "B4", "% H9 cell lysis E:T = 0.2:1 (FACS method, CAR T cells)": 29.8, "% MJ cell lysis E:T = 0.2:1 (FACS method, CAR T cells)": 50.5}
{"binder": "B5", "% H9 cell lysis E:T = 0.2:1 (FACS method, CAR T cells)": 44.2, "% MJ cell lysis E:T = 0.2:1 (FACS method, CAR T cells)": 30.4}
{"binder": "B6", "% H9 cell lysis E:T = 0.2:1 (FACS method, CAR T cells)": 38.3, "% MJ cell lysis E:T = 0.2:1 (FACS method, CAR T cells)": 40.7}
{"target": "T1, CD30 on CD30-expressing tumor cell …", "assay": "cell-based or functional assay", "remark": "another data set of the same source", "units": {"% H9 cell lysis E:T = 2:1 (LDH assay, CAR T cells)": "%", "% MJ cell lysis E:T = 1:1 (LDH assay, CAR T cells)": "%"}}
{"binder": "B1", "% H9 cell lysis E:T = 2:1 (LDH assay, CAR T cells)": 66, "% MJ cell lysis E:T = 1:1 (LDH assay, CAR T cells)": 64}
{"binder": "B2", "% H9 cell lysis E:T = 2:1 (LDH assay, CAR T cells)": 63, "% MJ cell lysis E:T = 1:1 (LDH assay, CAR T cells)": 53}
{"binder": "B3", "% H9 cell lysis E:T = 2:1 (LDH assay, CAR T cells)": 72, "% MJ cell lysis E:T = 1:1 (LDH assay, CAR T cells)": 56}
{"binder": "B4", "% H9 cell lysis E:T = 2:1 (LDH assay, CAR T cells)": 84, "% MJ cell lysis E:T = 1:1 (LDH assay, CAR T cells)": 76}
{"binder": "B5", "% H9 cell lysis E:T = 2:1 (LDH assay, CAR T cells)": 64, "% MJ cell lysis E:T = 1:1 (LDH assay, CAR T cells)": 50}
{"binder": "B6", "% H9 cell lysis E:T = 2:1 (LDH assay, CAR T cells)": 78, "% MJ cell lysis E:T = 1:1 (LDH assay, CAR T cells)": 59}
